To fix the notation:
T1: human Aβ pE3-18 peptide, pEFRHDSGYEVHHQKLV (human)
T1 construct: The range 3-18 counts on the Aβ peptide; also called pE3-Aβ18; pE3-Aβ peptide
T1 peptide: [pGlu]FRHDSGYEVHHQKLV

B1: humanized antibody clone #6 sequence variant VH: SEQ ID NO: 27, VL: SEQ ID NO: 14 (antibody, human IgG1, V domains shown)
VH: QVQLVQSGAEVKKSGASVKVSCKASGYSFTGHTMNWVRQAPGQGLEWMGLINPSNGVTRYNQKFQGRVTITRDTSTTTVHMELTSLTSEDTATYYCTREAKREWDETYWGQGTLVTVSS
VL: DVVMTQSPLSLPVTLGQPASISCKSSQSLLYSDGKTYLNWFQQRPGQSPRRLTYLVSKLDSGVPDRFSGSGSGTDFTLKISRVEAEDVGVYYCVQGTHFPFTFGGGTKVEIK
B2: humanized antibody clone #6 sequence variant VH: SEQ ID NO: 27, VL: SEQ ID NO: 13 (antibody, human IgG1, V domains shown)
VH: QVQLVQSGAEVKKSGASVKVSCKASGYSFTGHTMNWVRQAPGQGLEWMGLINPSNGVTRYNQKFQGRVTITRDTSTTTVHMELTSLTSEDTATYYCTREAKREWDETYWGQGTLVTVSS
VL: DVVMTQSPLSLPVTLGQPASISCKSSQSLLYSDGKTYLNWFQQRPGQSPRRLAYLVSKLDSGVPDRFSGSGSGTDFTLKISRVEAEDVGVYYCVQGTHFPFTFGGGTKVEIK
B3: humanized antibody clone #6 sequence variant VH: SEQ ID NO: 70, VL: SEQ ID NO: 14 (antibody, human IgG1, V domains shown)
VH: QVQLVQSGAEVKKSGASVKVSCKASGYSFTGHTMNWVRQAPGQGLEWMGLINPSNEVTRYNQKFQGRVTITRDTSTTTVHMELTSLTSEDTATYYCTREAKREWDETYWGQGTLVTVSS
VL: DVVMTQSPLSLPVTLGQPASISCKSSQSLLYSDGKTYLNWFQQRPGQSPRRLTYLVSKLDSGVPDRFSGSGSGTDFTLKISRVEAEDVGVYYCVQGTHFPFTFGGGTKVEIK
B4: humanized antibody clone #6 sequence variant VH: SEQ ID NO: 27, VL: SEQ ID NO: 15 (antibody, human IgG1, V domains shown)
VH: QVQLVQSGAEVKKSGASVKVSCKASGYSFTGHTMNWVRQAPGQGLEWMGLINPSNGVTRYNQKFQGRVTITRDTSTTTVHMELTSLTSEDTATYYCTREAKREWDETYWGQGTLVTVSS
VL: DVVMTQSPLSLPVTLGQPASISCKSSQSLLHSDGKTYLNWFQQRPGQSPRRLTYLVSKLDSGVPDRFSGSGSGTDFTLKISRVEAEDVGVYYCVQGTHFPFTFGGGTKVEIK
B5: humanized antibody clone #6 sequence variant VH: SEQ ID NO: 24, VL: SEQ ID NO: 14 (antibody, human IgG1, V domains shown)
VH: QVQLVQSGAEVKKSGASVKVSCKASGYSFTGHTMNWVRQAPGQGLEWMGLINPSNGVTRYNQKFQGRVTITRDTSTTTVHMELTSLTSEDTAVYYCTREAKREWDETYWGQGTLVTVSS
VL: DVVMTQSPLSLPVTLGQPASISCKSSQSLLYSDGKTYLNWFQQRPGQSPRRLTYLVSKLDSGVPDRFSGSGSGTDFTLKISRVEAEDVGVYYCVQGTHFPFTFGGGTKVEIK

Non-standard residues stand in square brackets, D forms with d. No end group written: not given here. pGlu = O=C1CC[C@@H](C(=O)O)N1

The text below walks through data of patent US20180140689A1 (PROBIODRUG, published 2018).

By EC50 (read off the curve) is commonly meant the concentration at which the effect is half-maximal. The Kd is a measure of binding affinity in units of concentration. A lower Kd goes with a tighter complex. Usually koff stands for the rate constant with which the complex falls apart. What is called kon is the rate constant with which the complex forms.

For the first assay, the target named is full length human CD32A on CHO cells (human) (UniProt P12318). The assay can be described thus: FACS on CHO cells stably expressing full length human CD32A, bound antibody detected with fluorochrome-conjugated anti-Fab'.
Sequence of full length human CD32A on CHO cells (human) (P12318 34-317): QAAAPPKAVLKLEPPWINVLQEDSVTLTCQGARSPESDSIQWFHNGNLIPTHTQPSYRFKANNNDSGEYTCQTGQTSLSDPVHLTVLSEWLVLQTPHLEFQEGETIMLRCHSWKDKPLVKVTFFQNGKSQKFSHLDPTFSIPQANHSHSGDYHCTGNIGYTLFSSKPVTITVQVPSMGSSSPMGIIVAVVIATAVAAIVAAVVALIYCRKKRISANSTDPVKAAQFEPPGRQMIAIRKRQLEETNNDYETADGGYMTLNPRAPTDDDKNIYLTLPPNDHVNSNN
For “antibody comprising the K324A mutant variant of the human IgG1 Fc region (SEQ ID NO: 74)”, the EC50 (read off the curve) was determined as 100 nM.

Molecule “antibody comprising the human IgG1 Fc wild-type region of SEQ ID NO: 73” registered a half-maximal effective concentration (EC50 (read off the curve)) of 100 nM.

The target of another assay is T1, human Aβ pE3-18 peptide, …. The assay can be described thus: SPR, 1:1 Langmuir fit. As to the method:
First a polyclonal α-human antibody was coupled to an SPR-Chip subsequent loaded with the humanized antibody until the Response Unit was more than 1000.
Kinetic measurement was performed at different concentrations (of 5 to 1000 nM) of AβpE3-18-peptide. The graphs of the measured series are shown as an overlay plot with the sensorgrams, corrected by the sensogram measuring the running buffer, aligned at the time of injection and the baseline adjusted to zero before injection. The results are evaluated according to a simple 1:1 interaction model (Langmuir fit), which promote the koff and kₒₙ rate constants.
As to B1, the dissociation constant (Kd) was determined as 5.09 nM, the koff worked out at 0.00323 s⁻¹ and the kon was 635000 M⁻¹ s⁻¹.

B2 came in with a Kd of 7.35 nM, an off-rate constant (koff) of 0.00413 s⁻¹ and a kon of 562000 M⁻¹ s⁻¹.

B3 had a Kd of 8.43 nM, an off-rate (koff) of 0.00357 s⁻¹ and a kon of 423000 M⁻¹ s⁻¹.

B4 registered a dissociation constant (Kd) of 15.5 nM, a dissociation rate constant (koff) of 0.00415 s⁻¹ and an on-rate constant (kon) of 267000 M⁻¹ s⁻¹.

B5 had a Kd of 9.36 nM, an off-rate (koff) of 0.00576 s⁻¹ and an on-rate (kon) of 616000 M⁻¹ s⁻¹.
